This series is described as follows: soluble on expression in E. coli; label from the status in PepcDB or PDB records.
Consider “MKIIIIGGVAGGATTAARIRRTNEAAEIILLEKGKYISYANCGLPYYIGGVIKEREKLFVQTPEAFSTRFRVDVRTENEVIFIDRKRKTVTVRQSSGDTYEESYDKLLISTGASPVRPPLPGIDLNGIFTLRNVADTDRIKEYINSHAPRKAVVIGAGFIGLEMAENLHAQGAKVSIVEMGNQVMAPIDFSMASLVHQHLMDKGVNLYLEQAVASFERDGKGLKVIFKNGQSISADIVILSIGVRPETTLARAAELKIGEAGGIAVNDYLQTSDESIYAIGDAIEFRHPITGKPWLNYLAGPANRQGRIVADNIQGAHIPYEGAIGTSIAKVFDMTVASTGLPGKRLRQAEINYMSSTIHPSSHAGYYPDAMPMSIKITFDPKTGKLYGGQIVGYDGVDKRIDEIALVIKHEGTIYDLMKVEQAYAPPFSSAKDPVAVAGYVAENIITGKVQPVYWRQLRDIEMENNFLLDVRTPDEFSLNTLPGAVNIPLDELRDRLDELPKDKMIYTFCAVGLRGYLAYRILVQHGFEKVRNLSGGLKTYHAAAAPIILREESENEVPAQPNANIQQPADAQPQKTVSPVEAVKTIRVDACGLQCPGPILKMKKTMDSLVSGDRVEITSTDPGFPRDAAAWCNSTGNQLISKETAGGKSVVVIEKGEPKSCNIVTSCEGKGKTFIMFSDDLDKALATFVLANGAAATGQKVTIFFTFWGLNVIKKLHKPNVEKDIFGKMFGMMLPSSSRKLKLSKMSMGGIGGKMMRYIMNRKGIDSLESLRQQALENGVEFIACQMSMDVMGVKQEELLDEVTIGGVATYMERADNANINLFILEHHHHHH”, for which the “soluble on expression in E. coli” value was “not soluble”. The result for “MKIISFVLPCLLVLAGCSTPSQPEAPKPPQIGMANPASVYCQQKGGTLIPVQTAQGVSNNCKLPGGETIDEWALWRRDHPAGEKLEHHHHHH” reads “not soluble”; that for “MKIKAIEPTPSPNTMKVILNEVLPSGARNNYTNENKEQAPMQVQEILKIEGIKGVYHVADFLAVERNAKYDWKVLLQQVRAVFGEEVLEESEEQQLAHFGEVKVFVQMFFTIPMQVKLTDGTTEERVGLPDRFKESIMKVQMSAPNVVKERKWVEQSTRYGNFEEIGKEVVEEIVAAYSEERVNETVKELLNQAGAVEVTIQKREPYKVTEEMMKDSDWKNRFAALEQMDPTEEDIPVLKMALDDEKVSIRRLATAYLGMVKGDEVLPLLYKALLDRSVSVRRTAGDCLSDVGDPAAMFVMIKSLKDPSKLVRWRAAMFLFELGDESAIPALKAAQDDPEFEVAMQARLALERIEGGEEAKGSVWKQMTESRKGE”, “not soluble”. To “MKILGISGSPRKEGTHFAVNYALDYLKEKGFETKYISVFQKKIEFCIHCDYCLRTKEGCVHKDSMQEIYNGLKWADAVILGSPCYNGTVSGQLKTIMDRCRAIFAEDIDVLRNKYGMALSVGGDRNGGQEVVLKTIHDFYILNGVIPVSGGSFGSNLGATFWSQDNGKKGVEEDTEGIRTLKRTLKKFYNCLNEEGELEHHHHHH” belongs “not soluble”; to “MKILITGGSGLVGRQLTKSLQAQNIEVTWLSRTKGVKDGIKSFLWDYKKGYIEEEAFDGVTHIVHLAGAGVFDKRWTKSYKKEIFDSRILTTKLLVEKALKLNGLEAFISGSAIGIYGNSMNSVPLTETALYGNDYLAQVTKEWEAATVPLENSSIRLAIIRTGIVLSEHGGALPAMINPIKAYIGSPLASGEQIISWIHIDDLCRIFSKAITDDAIKGTYNGVAPEPVTNKVLTQTAAAILHKPLVMPNVPSFALNILLGKEKAASVVEGIAVSAEKISATGFTFTYPYIKKALSDLLLEHHHHHH”, “not soluble”. Consider “MKINRKGGLFLLMFLFLLTGCWDRRELEHVLFINTLGIDFKDNHYIIYPQFINFTNMAKQEGPANRNYSPAYIGKGEGKLLYDAAFDFYKSSQQKVSWEHIKSIVVTERFLKNGNLNQLNDFLSRFFQFRNTMWVFGTKEPLENILATNNIFNISSLYTIMNLPQETIRQSASVDPLRLYTFRSNYYEPGMTTRIPFLATTTEHWKQGHKAFWMLEFNEYGCIAAKSYVNHLNDSDIAGVRWTNKNTNRAPLLLKVKNRAIGELILKKPKIDTKVSIEKGKPHIVMNISLEGDIYQLMKPMPVHKVKKTLRISLKKK”, for which the “soluble on expression in E. coli” value was “not soluble”. To “MKIPSLQSNFNFSAPAGYSAPIAPNRAENAYADYVLDIGKRIPLSAADLSNVYESVIRAVHDSRSRLIDQHTVDMIGNTVLDALSRSQTFRDAVSYGIHNEKVHIGCIKYRNEYELNEESSVKIDDIQSLTCNELYEYDVGQEPIFPICEAGENDNEEPYVSFSVAPDTDSYEMPSWQEGLIHEIIHHVTGSSDPSGDSNIELGPTEILARRVAQELGWSVPDFKGYAEPEREAHLRLRNLNALRQAAMRHEENERAFFERLGTISDRYEASPDFTEYSAVSNIGYGFIQQHDFPGLAINDNLQDANQIQLYHGAPYIFTFGDVDKHNQQ” belongs “soluble”.

Values taken from the DeepSol protein solubility set.
